Among the data in patent US20060257852A1 (priority 2003, published 2006) are frequency of monomeric form, frequency of oligomeric form and efficiency of oligomerization values, retold here.

The target in experiment [1] is nSh[change], Spike without transmembrane and cytoplasmic domains, with histidine tag (SARS coronavirus (Frankfurt isolate)) (UniProt P59594). Briefly: self-association; western blot of cell lysate.
For experiment [2] the target is unchanged. Briefly: self-association; non-heated SDS-PAGE and western blot. (Immunoblotting shows a protein as a band on a membrane.)

Some results are limits rather than exact numbers.

In experiment [1], “nSh[change], Spike without transmembrane and cytoplasmic domains, with histidine tag (from UniProt P59594 14-1195)” registered a frequency of monomeric form of 90% and a frequency of oligomeric form of 10%. In experiment [2], the efficiency of oligomerization is under 10%.
